Experimental data reported in the supplement of paper PMC7877785.
± gives the uncertainty stated by the source.

Experiment: self-splicing fitness, log relative to wild type (ln ratio); higher = more splicing; Tetrahymena group I intron in knt gene, E. coli kanamycin selection, DiMSum; sequences stand for … in CUCUCU…GGAGGGAAAAGUUAUCAGGCAUGCACCUGGUAGCUAGUCUUUAAACCAAUAGAUUGCAUCGGUUUAAAAGGCAAGACCGUCAAAUUGCGGGAAAGGGGUCAACAGCCGUUCAGUACCAAGUCUCAGGGGAAACUUUGAGAUGGCCUUGCAAAGGGUAUGGUAAUAAGCUGACGGACAUGGUCCUAACCACGCAGCCAAGUCCUAAGUCAACAGAUCUUCUGUUGAUAUGGAUGCAGUUCACAGACUAAAUGUCGGUCGGGGAAGAUGUAUUCUUCUCAUAAGAUAUAGUCGGACCUCUCCUUAAUGGGAGCUAGCGGAUGAAGUGAUGCAACACUGGAGCCGCUGGGAACUAAUUUGUAUGCGAAAGUAUAUUGAUUAGUUUUGGAGUACUCGUGGUCG
In short: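 A randomised library covering all eight P1ex-region intron nucleotides was built with the intron in the knt kanamycin-resistance gene on pET-22b(+) and held in E. coli BL21(DE3). Cells were grown overnight at 37°C or 30°C on LB agar, with or without 25 μg/mL kanamycin, plus 100 μg/mL carbenicillin, 50 μM IPTG and 0.2% rhamnose, and pooled colonies were amplicon-sequenced on an Illumina HiSeq 2500. DiMSum fitness is the error-weighted combination of wild-type-normalised replicate fold changes, kanamycin versus none.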

Sequence	self-splicing fitness (ln) (30 °C)	self-splicing fitness (ln) (37 °C)
UAGCAGCAAUAUUACGUAGC	-3.58 ± 0.44	-2.78 ± 0.38
UAGCAGCAAUAUUACGUCCA	-0.794 ± 0.11	-0.187 ± 0.11
UAGCAGCAAUAUUACGUCUA	-0.114 ± 0.073	0.146 ± 0.084
UAGCAGCAAUAUUACGUCUU	-1.07 ± 0.071	-0.289 ± 0.085
UAGCAGCAAUAUUACGUUGU	-3.72 ± 0.21	-3.08 ± 0.26
UAGGAGCAAUAUUACGAACG	-0.534 ± 0.12	-0.578 ± 0.19
UAGGAGCAAUAUUACGACCA	-1.68 ± 0.13	-0.415 ± 0.19
UAGGAGCAAUAUUACGACUC	-2.01 ± 0.28	
UAGGAGCAAUAUUACGACUG	-0.384 ± 0.096	0.363 ± 0.14
UAGGAGCAAUAUUACGAGAA	-3.23 ± 0.44	-2.68 ± 0.42
UAGGAGCAAUAUUACGCAUU	-3.91 ± 0.35	-2.42 ± 0.42
UAGGAGCAAUAUUACGCGAU	-3.84 ± 0.47	-2.68 ± 0.34
UAGGAGCAAUAUUACGCGUC	-2.98 ± 0.28	-2.22 ± 0.29
UAGGAGCAAUAUUACGGCAG	-3.1 ± 0.37	-0.425 ± 0.25
UAGGAGCAAUAUUACGGGAG	-2.69 ± 0.27	-2.96 ± 0.36
UAGGAGCAAUAUUACGGGUA	-1.45 ± 0.17	-2.13 ± 0.21
UAGGAGCAAUAUUACGUGGA	-2.34 ± 0.38	-1.43 ± 0.22
UAGGAGCAAUAUUACGUUAU	-4.64 ± 0.22	-2.85 ± 0.15
UAGGAGCAAUAUUACGUUGA	-2.46 ± 0.18	-1.19 ± 0.17
UAGUAGCAAUAUUACGACCG	-0.133 ± 0.16	0.109 ± 0.16
UAGUAGCAAUAUUACGACGG	-1.21 ± 0.16	-0.306 ± 0.21
UAGUAGCAAUAUUACGAGAU	-2.69 ± 0.13	-2.32 ± 0.19
UAGUAGCAAUAUUACGAGCA	-1.07 ± 0.12	-0.0288 ± 0.12
UAGUAGCAAUAUUACGAGGC	-3.45 ± 0.32	
UAGUAGCAAUAUUACGAGUG	-1.66 ± 0.081	-0.549 ± 0.083
UAGUAGCAAUAUUACGAUAG	-1.95 ± 0.35	

Sequence	self-splicing fitness (ln) (30 °C)	self-splicing fitness (ln) (37 °C)
UAGUAGCAAUAUUACGAUGC	-4.61 ± 0.34	-2.56 ± 0.2
UAGUAGCAAUAUUACGAUUA	-0.381 ± 0.099	0.0431 ± 0.098
UAGUAGCAAUAUUACGCACC		-0.0165 ± 0.38
UAGUAGCAAUAUUACGCCGA	-1.81 ± 0.23	-0.922 ± 0.2
UAGUAGCAAUAUUACGCCUC		-1.66 ± 0.31
UAGUAGCAAUAUUACGCGCA	-0.614 ± 0.1	0.274 ± 0.11
UAGUAGCAAUAUUACGCUUU	-2.3 ± 0.25	-2.18 ± 0.18
UAGUAGCAAUAUUACGGACA	-1.04 ± 0.17	-0.115 ± 0.19
UAGUAGCAAUAUUACGGACU	-0.0123 ± 0.18	0.484 ± 0.15
UAGUAGCAAUAUUACGGAGA	-3.56 ± 0.47	-3.35 ± 0.35
UAGUAGCAAUAUUACGGAUA	-2.7 ± 0.26	-0.444 ± 0.14
UAGUAGCAAUAUUACGGCAG	-1.01 ± 0.11	-1.57 ± 0.14
UAGUAGCAAUAUUACGGCCC	-2.09 ± 0.17	-1.92 ± 0.37
UAGUAGCAAUAUUACGGCUC	-1.01 ± 0.098	0.206 ± 0.14
UAGUAGCAAUAUUACGGGCG	-0.694 ± 0.14	-0.395 ± 0.12
UAGUAGCAAUAUUACGGGGU	-3 ± 0.17	-2.89 ± 0.22
UAGUAGCAAUAUUACGGUGA	-2.29 ± 0.42	-1.46 ± 0.24
UAGUAGCAAUAUUACGGUUG	-0.955 ± 0.056	-0.642 ± 0.07
UAGUAGCAAUAUUACGUAUG	-1.82 ± 0.1	-0.711 ± 0.12
UAGUAGCAAUAUUACGUCGU	-3.76 ± 0.38	-2.81 ± 0.21
UAGUAGCAAUAUUACGUGUU	-3.65 ± 0.21	-1.95 ± 0.15
UAGUAGCAAUAUUACGUUAA	-2.34 ± 0.17	-2.06 ± 0.17
UAGUAGCAAUAUUACGUUAC	-3.78 ± 0.2	-2.97 ± 0.23
UAGUAGCAAUAUUACGUUUC	-1.16 ± 0.38	-1.5 ± 0.41
UAUAAGCAAUAUUACGAACA	-0.73 ± 0.15	-0.241 ± 0.21
UAUAAGCAAUAUUACGAACC	-2.5 ± 0.41	-1.51 ± 0.32

Sequence	self-splicing fitness (ln) (30 °C)	self-splicing fitness (ln) (37 °C)
UAUAAGCAAUAUUACGAGUU	-2.72 ± 0.15	-1.11 ± 0.15
UAUAAGCAAUAUUACGAUUG	-1.48 ± 0.11	-0.744 ± 0.13
UAUAAGCAAUAUUACGCAUA	-1.92 ± 0.12	-0.585 ± 0.12
UAUAAGCAAUAUUACGCGAG	-1.39 ± 0.12	-1.02 ± 0.11
UAUAAGCAAUAUUACGCUGA	-1.96 ± 0.22	-1.53 ± 0.23
UAUAAGCAAUAUUACGGAAC	-4.02 ± 0.42	-2.94 ± 0.41
UAUAAGCAAUAUUACGGCAU	-0.623 ± 0.077	-0.223 ± 0.098
UAUAAGCAAUAUUACGGCCA	-0.385 ± 0.15	0.169 ± 0.22
UAUAAGCAAUAUUACGGCGC	-1.25 ± 0.11	-1.35 ± 0.14
UAUAAGCAAUAUUACGGGCC	-2.99 ± 0.31	
UAUAAGCAAUAUUACGGGGC	-2.29 ± 0.45	
UAUAAGCAAUAUUACGGUCC	-0.922 ± 0.44	
UAUAAGCAAUAUUACGGUGC	-2.46 ± 0.19	-3.09 ± 0.3
UAUAAGCAAUAUUACGUACG	-0.621 ± 0.13	-0.0322 ± 0.15
UAUAAGCAAUAUUACGUAUU	-4.41 ± 0.37	-1.61 ± 0.18
UAUAAGCAAUAUUACGUCAA	-2.24 ± 0.14	-0.698 ± 0.11
UAUAAGCAAUAUUACGUCGG	-0.782 ± 0.076	-0.0864 ± 0.098
UAUAAGCAAUAUUACGUUAA	-2.59 ± 0.15	-1.5 ± 0.14
UAUAAGCAAUAUUACGUUGU	-4.3 ± 0.2	-2.55 ± 0.17
UAUCAGCAAUAUUACGAAUG	0.00149 ± 0.052	0.0362 ± 0.07
UAUCAGCAAUAUUACGAGAG	-3.03 ± 0.15	-0.0372 ± 0.092
UAUCAGCAAUAUUACGCCAA	-1.34 ± 0.19	-0.351 ± 0.2
UAUCAGCAAUAUUACGCCGA	-1.32 ± 0.12	-0.34 ± 0.18
UAUCAGCAAUAUUACGCGAU		-2.49 ± 0.23
UAUCAGCAAUAUUACGCGUA	-0.493 ± 0.1	0.0959 ± 0.12
UAUCAGCAAUAUUACGGCAU	-1.14 ± 0.071	-0.0824 ± 0.075
